What all share (assay): yeast two-hybrid
Experiment [1] addresses T1, Tumor Suppressor (TSG101) 240-391 (human, UniProt Q99816 240-390).
T1 construct: range 240-391; bait (Gal4 DBD fusion); also called TSG101 240-390
T1 sequence (looked up): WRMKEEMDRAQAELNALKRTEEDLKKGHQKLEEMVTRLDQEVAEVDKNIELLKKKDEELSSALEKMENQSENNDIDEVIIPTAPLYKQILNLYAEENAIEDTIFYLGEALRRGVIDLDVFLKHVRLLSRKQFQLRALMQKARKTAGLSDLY

The target in experiment [2] is T2, Tumor Suppressor (TSG101) 12-326 (human, UniProt Q99816 12-326).
T2 construct: bait (Gal4 DBD fusion)
T2 sequence (looked up): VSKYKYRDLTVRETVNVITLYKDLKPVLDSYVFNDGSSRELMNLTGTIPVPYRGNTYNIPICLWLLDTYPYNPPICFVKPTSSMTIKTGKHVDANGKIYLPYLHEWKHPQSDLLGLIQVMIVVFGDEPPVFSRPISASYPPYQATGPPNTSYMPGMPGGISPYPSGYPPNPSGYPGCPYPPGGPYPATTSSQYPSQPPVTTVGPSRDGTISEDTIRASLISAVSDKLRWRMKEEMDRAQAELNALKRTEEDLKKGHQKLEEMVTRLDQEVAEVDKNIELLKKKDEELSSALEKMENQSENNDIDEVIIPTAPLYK

Experiment [3] deals with T3, Tumor Suppressor (TSG101) 231-391 (human, UniProt Q99816 231-390).
T3 construct: bait (Gal4 DBD fusion)
T3 sequence (looked up): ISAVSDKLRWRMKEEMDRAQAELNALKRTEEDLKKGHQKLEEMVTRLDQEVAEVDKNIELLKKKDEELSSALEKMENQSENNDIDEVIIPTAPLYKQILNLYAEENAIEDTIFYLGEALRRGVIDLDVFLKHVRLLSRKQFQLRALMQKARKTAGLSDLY

B1: Mitotic spindle coiled-coil related protein 942-1021 (other, human, UniProt Q96R06 942-1021, looked up)
chain: LGSDKSAFTRVASMVSLQPAETPGMEESLAEMSIMTTELQSLCSLLQESKEEAIRTLQRKICELQARLQAQEEQHQEVQK
notes: prey (Gal4 AD-HA fusion)
For the molecule B1, the binding result in experiment [1] is reported as “binds”.

B2: Keratin 8 293-394 (other, human, UniProt P05787 293-394, looked up)
chain: AGKHGDDLRRTKTEISEMNRNISRLQAEIEGLKGQRASLEAAIADAEQRGELAIKDANAKLSELEAALQRAKQDMARQLREYQELMNVKLALDIEIATYRKL
notes: prey (Gal4 AD-HA fusion)
Regarding B2, the binding result in experiment [1] is reported as “binds”.

B3: Intersection 1 436-547 (other, human, UniProt Q15811 436-547, looked up)
chain: AAKRELERQRQLEWERNRRQELLNQRNKEQEDIVVLKAKKKTLEFELEALNDKKHQLEGKLQDIRCRLTTQRQEIESTNKSRELRIAEITHLQQQLQESQQMLGRLIPEKQI
notes: prey (Gal4 AD-HA fusion); also called Intersectin 1; ITSN1
With B3, the binding result in experiment [1] was “binds”.

B4: Keratin 5 335-473 (other, human, UniProt P13647 335-473, looked up)
chain: LDSIIAEVKAQYEEIANRSRTEAESWYQTKYEELQQTAGRHGDDLRNTKHEISEMNRMIQRLRAEIDNVKKQCANLQNAIADAEQRGELALKDARNKLAELEEALQKAKQDMARLLREYQELMNTKLALDVEIATYRKL
notes: prey (Gal4 AD-HA fusion)
On to B4, for which, in experiment [1], the binding result is on record as “binds”.

B5: Kinesin Family Member 5A (KIF5A) 564-725 (other, human, UniProt Q12840 564-725, looked up)
chain: IVGNGEIKLPVEISGAIEEEFTVARLYISKIKSEVKSVVKRCRQLENLQVECHRKMEVTGRELSSCQLLISQHEAKIRSLTEYMQSVELKKRHLEESYDSLSDELAKLQAQETVHEVALKDKEPDTQDADEVKKALELQMESHREAHHRQLARLRDEINEKQ
notes: prey (Gal4 AD-HA fusion)
On to B5, for which the binding result in experiment [2] is on record as “binds”.

B6: GTPase-activiating protein 1 1406-1547 (other, human, UniProt P46940 1406-1547, looked up)
chain: EILETPATSEQEAEHQRAMQRRAIRDAKTPDKMKKSKSVKEDSNLTLQEKKEKIQTGLKKLTELGTVDPKNKYQELINDIARDIRNQRRYRQRRKAELVKLQQTYAALNSKATFYGEQVDYYKSYIKTCLDNLASKGKVSKK
notes: prey (Gal4 AD-HA fusion); also called IQGAP1; IQGAP
As for B6, the binding result in experiment [1] was “binds”.

B7: Intersection 1 437-584 (other, human, UniProt Q15811 437-584, looked up)
chain: AKRELERQRQLEWERNRRQELLNQRNKEQEDIVVLKAKKKTLEFELEALNDKKHQLEGKLQDIRCRLTTQRQEIESTNKSRELRIAEITHLQQQLQESQQMLGRLIPEKQILNDQLKQVQQNSLHRDSLVTLKRALEAKELARQHLRD
notes: as for B3
With B7, in experiment [1], the binding result was “binds”.

B8: GTPase-activiating protein 1 1463-1568 (other, human, UniProt P46940 1463-1568, looked up)
chain: LKKLTELGTVDPKNKYQELINDIARDIRNQRRYRQRRKAELVKLQQTYAALNSKATFYGEQVDYYKSYIKTCLDNLASKGKVSKKPREMKGKKSKKISLKYTAARL
notes: as for B6
Consider B8, for which the binding result in experiment [1] is on record as “binds”.

B9: Keratin 5 325-446 (other, human, UniProt P13647 325-446, looked up)
chain: LSMDNNRNLDLDSIIAEVKAQYEEIANRSRTEAESWYQTKYEELQQTAGRHGDDLRNTKHEISEMNRMIQRLRAEIDNVKKQCANLQNAIADAEQRGELALKDARNKLAELEEALQKAKQDM
notes: prey (Gal4 AD-HA fusion)
With B9, the binding result in experiment [1] was “binds”.

B10: novel protein PN9667 268-422 (other)
chain: KAKEKEVEKIEQNGLALIQNKKEDVSSIVMSTLRELGQTWANLDHMVGQLKILLKSVLDQWSSHKVAFDKINSYLMEARYSLSRFRLLTGSLEAVQVQVDNLQNLQDDLEKQERSLQKFGSITNQLLKECHPPVTETLTNTLKEVNMRWNNLLEE
notes: prey (Gal4 AD-HA fusion)
For B10, in experiment [2], the binding result is recorded as “binds”.

B11: Tropomyosin TM30pl (TPM4) 91-142 (other, human, UniProt P67936 91-142, looked up)
chain: MKVIENRAMKDEEKMEIQEMQLKEAKHIAEEADRKYEEVARKLVILEGELER
notes: prey (Gal4 AD-HA fusion)
B11: in experiment [3], the binding result is given as “binds”.

B12: Accessory proteins BAP31/BAP29 (BAP31) 184-246 (other, human, UniProt P51572 184-246, looked up)
chain: LKADLQKLKDELASTKQKLEKAENQVLAMRKQSEGLTKEYDRLLEEHAKLQAAVDGPMDKKEE
notes: prey (Gal4 AD-HA fusion)
With B12, the binding result in experiment [2] was “binds”.

B13: Keratin 5 384-475 (other, human, UniProt P13647 384-475, looked up)
chain: HEISEMNRMIQRLRAEIDNVKKQCANLQNAIADAEQRGELALKDARNKLAELEEALQKAKQDMARLLREYQELMNTKLALDVEIATYRKLLE
notes: prey (Gal4 AD-HA fusion)
B13: the binding result in experiment [1] is “binds”.

B14: Rho-associated (ROCK1) 462-617 (enzyme, human, UniProt Q13464 462-617, looked up)
chain: KIMKELDEEGNQRRNLESTVSQIEKEKMLLQHRINEYQRKAEQENEKRRNVENEVSTLKDQLEDLKKVSQNSQLANEKLSQLQKQLEEANDLLRTESDTAVRLRKSHTEMSKSISQLESLNRELQERNRILENSKSQTDKDYYQLQAILEAERRDR
notes: prey (Gal4 AD-HA fusion); also called ROK; p160
Consider B14, for which, in experiment [3], the binding result is “binds”.

B15: GrpE-Like protein cochaperone (PN19062) 40-89 (other)
chain: LEEDMGQSEQKADPPATEKTLLEEKVKLEEQLKETVEKYKRALADTENLR
notes: prey (Gal4 AD-HA fusion); also called PN19062/HMGE; GRPEL1
Turning to B15, in experiment [3], the binding result is given as “binds”.

B16: GTPase-activiating protein 1 1404-1553 (other, human, UniProt P46940 1404-1553, looked up)
chain: LTEILETPATSEQEAEHQRAMQRRAIRDAKTPDKMKKSKSVKEDSNLTLQEKKEKIQTGLKKLTELGTVDPKNKYQELINDIARDIRNQRRYRQRRKAELVKLQQTYAALNSKATFYGEQVDYYKSYIKTCLDNLASKGKVSKKPREMKG
notes: as for B6
On to B16, for which the binding result in experiment [1] is “binds”.

B17: GTPase-activiating protein 1 1439-1565 (other, human, UniProt P46940 1439-1565, looked up)
chain: KKSKSVKEDSNLTLQEKKEKIQTGLKKLTELGTVDPKNKYQELINDIARDIRNQRRYRQRRKAELVKLQQTYAALNSKATFYGEQVDYYKSYIKTCLDNLASKGKVSKKPREMKGKKSKKISLKYTA
notes: as for B6
As to B17, the binding result in experiment [1] is “binds”.

B18: Zink finger protein 231 (ZNF231) 2308-2438 (other, human, UniProt Q9UPA5 2308-2438, looked up)
chain: EEPLPTTTPAAIKEAAGAPAPAPLAGQKPPADAAPGGGSGALSRPGFEKEEASQEERQRKQQEQLLQLERERVELEKLRQLRLQEELERERVELQRHREEEQLLVQRELQELQTIKHHVLQQQQEERQAQF
notes: prey (Gal4 AD-HA fusion)
B18: in experiment [3], the binding result is listed as “binds”.

B19: Golgi autoantigen (Golgin-84) 198-501 (other, human, UniProt Q8TBA6 198-501, looked up)
chain: SKENVSSNAACPDHTPTPNDDGKSHELSNLRLENQLLRNEVQSLNQEMASLLQRSKETQEELNKARARVEKWNADHSKSDRMTRGLRAQVDDLTEAVAAKDSQLAVLKVRLQEADQLLSTRTEALEALQSEKSRIMQDQSEGNSLQNQALQTFQERLHEADATLKREQESYKQMQSEFAARLNKVEMERQNLAEAITLAERKYSDEKKRVDELQQQVKLYKLNLESSKQELIDYKQKATRILQSKEKLINSLKEGSGFEGLDSSTASSMELEELRHEKEMQREEIQKLMGQIHQLRSELQDMEA
notes: prey (Gal4 AD-HA fusion)
Consider B19, for which, in experiment [2], the binding result is given as “binds”.

B20: Keratin 5 347-485 (other, human, UniProt P13647 347-485, looked up)
chain: EEIANRSRTEAESWYQTKYEELQQTAGRHGDDLRNTKHEISEMNRMIQRLRAEIDNVKKQCANLQNAIADAEQRGELALKDARNKLAELEEALQKAKQDMARLLREYQELMNTKLALDVEIATYRKLLEGEECRLSGEG
notes: prey (Gal4 AD-HA fusion)
Regarding B20, the binding result in experiment [1] is on record as “binds”.

B21: Golgi autoantigen (Golgin-84) 198-497 (other, human, UniProt Q8TBA6 198-497, looked up)
chain: SKENVSSNAACPDHTPTPNDDGKSHELSNLRLENQLLRNEVQSLNQEMASLLQRSKETQEELNKARARVEKWNADHSKSDRMTRGLRAQVDDLTEAVAAKDSQLAVLKVRLQEADQLLSTRTEALEALQSEKSRIMQDQSEGNSLQNQALQTFQERLHEADATLKREQESYKQMQSEFAARLNKVEMERQNLAEAITLAERKYSDEKKRVDELQQQVKLYKLNLESSKQELIDYKQKATRILQSKEKLINSLKEGSGFEGLDSSTASSMELEELRHEKEMQREEIQKLMGQIHQLRSELQ
notes: prey (Gal4 AD-HA fusion)
Take B21: the binding result in experiment [2] is “binds”.

B22: Chromosome-associated polypeptide HCAP (HCAP) 208-300 (other, human, UniProt Q9UQE7 208-300, looked up)
chain: EELAQYQKWDKMRRALEYTIYNQELNETRAKLDELSAKRETSGEKSRQLRDAQQDARDKMEDIERQVRELKTKISAMKEEKEQLSAERQEQIK
notes: prey (Gal4 AD-HA fusion)
Take B22: the binding result in experiment [3] is given as “binds”.

B23: Keratin 5 379-452 (other, human, UniProt P13647 379-452, looked up)
chain: LRNTKHEISEMNRMIQRLRAEIDNVKKQCANLQNAIADAEQRGELALKDARNKLAELEEALQKAKQDMARLLRE
notes: prey (Gal4 AD-HA fusion)
Consider B23, for which, in experiment [1], the binding result is “binds”.

B24: Tropomyosin TM30pl (TPM4) 79-142 (other, human, UniProt P67936 79-142, looked up)
chain: EAEKAADESERGMKVIENRAMKDEEKMEIQEMQLKEAKHIAEEADRKYEEVARKLVILEGELER
notes: prey (Gal4 AD-HA fusion)
As for B24, the binding result in experiment [3] is “binds”.

B25: Keratin 5 349-475 (other, human, UniProt P13647 349-475, looked up)
chain: IANRSRTEAESWYQTKYEELQQTAGRHGDDLRNTKHEISEMNRMIQRLRAEIDNVKKQCANLQNAIADAEQRGELALKDARNKLAELEEALQKAKQDMARLLREYQELMNTKLALDVEIATYRKLLE
notes: prey (Gal4 AD-HA fusion)
With B25, in experiment [1], the binding result is listed as “binds”.

B26: GTPase-activiating protein 1 1439-1567 (other, human, UniProt P46940 1439-1567, looked up)
chain: KKSKSVKEDSNLTLQEKKEKIQTGLKKLTELGTVDPKNKYQELINDIARDIRNQRRYRQRRKAELVKLQQTYAALNSKATFYGEQVDYYKSYIKTCLDNLASKGKVSKKPREMKGKKSKKISLKYTAAR
notes: as for B6
Consider B26, for which the binding result in experiment [1] is reported as “binds”.

These data come from patent US20050222029A1 (MYRIAD GENETICS, published 2005).
